Measurements reported in PMC7418079.

Biological target: Enterovirus D68 virion, B1 clade isolate US/MO/14–18947 (Enterovirus D68)

B1: mAb EV68–159 (antibody, V domains shown)
VH: EVQLVESGGGLVKPGGLRLSCAASGFTFSTYIMTWVRQAPGRGLEWVSSISTSSVYTFYADSLKGRFTISRDNAKNSVYLQMNSLRADDTAVYYCAREEGFRAYNLYWGQGTLVTVSS
VL: QSVLTQPPSASGTPGQRVTISCSGSSSNIEYNYVYWYQKFPGTAPKLLIYKNNQRPSGVPDRFSGSKSGTSASLAISGLRSEDEGDYYCAAWDDILSGVVFGGGTKLTVL
IC50 of neutralisation of a B1 clade EV-D68 isolate, CCID50 assay on RD cells: 0.32 ng/mL
